Experimental data as given in publication PMC3320582, “Group A Streptococcus Secreted Esterase Hydrolyzes Platelet-Activating Factor to Impede Neutrophil Recruitment and Facilitate Innate Immune Evasion” (PLoS Pathogens, 2012).

System: [H][C@@](COCCCCCCCCCCCCCCCC)(COP(=O)([O-])OCC[N+](C)(C)C)SC(C)=O
Assay: purified protein
Details: 20 mM Tris-HCl, pH 8.0, DTNB, room temperature, substrate concentrations corrected for early hydrolysis

Substance “SsE (Streptococcus pyogenes serotype M1)” has a Km of 7.0 µM and a kcat of 69.6 s⁻¹.
